In assay [1] the target is T1, ectodomain of human TfR1 (His10-hTfR1; SEQ ID NO:74) (human, UniProt P02786 89-760).
T1 construct: His-tagged ectodomain; also called ectodomain of hTfR1
The assay is described as follows: indirect ELISA on coated hTfR1 ectodomain (1 ug/ml), Fab 1:3 dilutions, anti-human IgG F(ab')2-HRP [lower panel]. On the procedure: For the indirect ELISA, half area 96-well plates (Corning, #3690) were coated with 1 μg/ml recombinant ectodomain of hTfR1 (SEQ ID NO:74) in PBS overnight at 4° C. The coated plates were blocked using Pierce protein-free blocking solution (Thermo Fisher Scientific, #37572) for 1 h at room temperature with shaking and washed four times in PBS containing 0.1% TWEEN-20. Serial dilutions (1:3) of various expressed constructs in incubation buffer (1% BSA, 0.1% TWEEN-20 in PBS) were incubated for 1 h at room temperature. […] Following four wash steps, K-Blue® Aqueous TMB substrate (Neogen, #331177) was added to the wells for 15 min at room temperature before the reaction was stopped with 1:1 dilution of 0.5 M H₂SO₄. The optical density at 450 nm was recorded (Spark, Tecan) and background signal was subtracted before analysis.

In assay [2] the target is T2, chimeric TfR1 consisting of human protease like domain grafted on mouse TfR1 ectodomain (SEQ ID NO:78) (human/mouse chimera).
T2 construct: His-tagged; also called h/m protease-like domain chimera
T2 chain: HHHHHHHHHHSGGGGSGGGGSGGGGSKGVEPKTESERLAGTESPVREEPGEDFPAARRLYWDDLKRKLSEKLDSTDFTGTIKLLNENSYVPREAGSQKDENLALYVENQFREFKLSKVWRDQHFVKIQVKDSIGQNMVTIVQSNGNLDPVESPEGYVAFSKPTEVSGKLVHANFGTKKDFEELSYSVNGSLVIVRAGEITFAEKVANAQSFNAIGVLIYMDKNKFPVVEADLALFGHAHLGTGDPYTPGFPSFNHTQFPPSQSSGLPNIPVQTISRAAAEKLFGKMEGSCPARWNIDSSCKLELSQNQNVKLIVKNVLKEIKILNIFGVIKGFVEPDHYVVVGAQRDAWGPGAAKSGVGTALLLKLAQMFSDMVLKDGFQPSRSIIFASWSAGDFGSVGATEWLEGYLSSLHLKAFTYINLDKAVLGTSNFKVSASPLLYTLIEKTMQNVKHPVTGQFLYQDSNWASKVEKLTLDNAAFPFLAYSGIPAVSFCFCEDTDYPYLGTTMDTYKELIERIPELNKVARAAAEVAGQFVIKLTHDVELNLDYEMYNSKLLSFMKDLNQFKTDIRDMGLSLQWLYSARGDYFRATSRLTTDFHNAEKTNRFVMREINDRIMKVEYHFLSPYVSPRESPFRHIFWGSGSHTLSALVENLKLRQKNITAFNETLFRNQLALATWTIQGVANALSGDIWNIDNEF
The assay is described as follows: indirect ELISA on coated h/m protease-like domain chimera (1 ug/ml), IgG dilution series; x axis printed 'TfR (ng/ml)' [D]. On the procedure: Plasma samples serially diluted from a starting dilution of 1/450 or hybridoma supernatants diluted 1/2 were added to the plates (50 μl/well; dilution buffer: PBS with 0.1% BSA and 0.05% TWEEN®-20) and incubated for 2 h at room temperature and then the plates were washed four times. […] After another wash (as above), 50 μl/well TMB substrate (K-Blue® Aqueous, Neogen) was added, and the reaction was stopped after 10-15 min with 50 μl/well of 0.5 M H₂SO₄. The optical density at 450 nm was read using a plate reader (Tecan). The endpoint titers were defined as the dilution above the average of the blank wells (background) plus 3 standard deviations of the blank wells.
The coated plates were then blocked. Dilution series of mouse IgG of the analyzed antibodies were prepared in PBS and incubated on the ELISA plates. Unbound antibodies were then washed off before incubating wells with a HRP-conjugated secondary, anti-mouse-IgG for 1 h. Plates were then washed again before addition of HRP substrate TMB for development and detection of antibody binding to the wells. TMB development was stopped by adding 0.5 M H₂SO₄ to the wells and ELISA responses measured as the OD at 450 nm in an ELISA plate reader.
For orientation: An ELISA detects its analyte on a solid surface through an enzyme-linked reagent.

T1 sequence (P02786 other isoform, or with tags, fused parts or gaps): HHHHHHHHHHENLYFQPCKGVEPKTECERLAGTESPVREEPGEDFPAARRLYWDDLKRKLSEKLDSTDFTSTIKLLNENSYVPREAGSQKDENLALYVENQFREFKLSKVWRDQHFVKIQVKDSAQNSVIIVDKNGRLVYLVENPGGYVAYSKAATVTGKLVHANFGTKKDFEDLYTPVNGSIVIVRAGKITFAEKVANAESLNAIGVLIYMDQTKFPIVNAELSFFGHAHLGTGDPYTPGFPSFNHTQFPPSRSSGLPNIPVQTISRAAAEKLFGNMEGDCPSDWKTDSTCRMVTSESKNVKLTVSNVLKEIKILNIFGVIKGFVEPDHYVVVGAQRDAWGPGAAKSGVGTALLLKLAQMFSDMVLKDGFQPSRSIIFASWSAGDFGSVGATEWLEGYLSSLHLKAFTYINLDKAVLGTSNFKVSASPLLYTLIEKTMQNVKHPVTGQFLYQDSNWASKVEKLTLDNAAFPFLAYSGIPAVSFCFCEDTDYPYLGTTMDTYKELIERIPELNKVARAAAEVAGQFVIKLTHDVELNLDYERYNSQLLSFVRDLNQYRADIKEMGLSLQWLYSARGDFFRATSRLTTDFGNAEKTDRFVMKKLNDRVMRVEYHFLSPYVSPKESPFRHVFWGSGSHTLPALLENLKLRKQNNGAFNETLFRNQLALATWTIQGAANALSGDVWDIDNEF

B1: h26D3-Fab (humanized 26D3) (Fab, V domains shown)
VH: EVQLVQSGAEVKKPGSSVKVSCKASGYIFTDYNMDWVRQAPGQGLEWIGDINPDYDTTSYNEKFKGRATLTVDKSTSTAYMELSSLRSEDTAVYYCARGGYSGSSYYHPMDYWGQGTLVTVSS
VL: DIQMTQSPSSVSASVGDRVTITCKSSQSLLYSTNQKNYLAWYQQKPGKAPKLLIYWASTRESGVPSRFSGSGSGTDFTLTISSLQPEDFATYYCQQYFIYPRTFGQGTKVEIK
notes: His-tagged Fab
The term EC50 (read off the curve) denotes the concentration at which the effect is half-maximal. A low value points to higher potency in that assay. As to B1, in assay [1], the “EC50 (read off the curve)” value is roughly 400 nM.

B2: h26D3 variant HC10 Fab (VH Y106A) (Fab, V domains shown)
VH: EVQLVQSGAEVKKPGSSVKVSCKASGYIFTDYNMDWVRQAPGQGLEWIGDINPDYDTTSYNEKFKGRATLTVDKSTSTAYMELSSLRSEDTAVYYCARGGYSGSSAYHPMDYWGQGTLVTVSS
VL: DIQMTQSPSSVSASVGDRVTITCKSSQSLLYSTNQKNYLAWYQQKPGKAPKLLIYWASTRESGVPSRFSGSGSGTDFTLTISSLQPEDFATYYCQQYFIYPRTFGQGTKVEIK
notes: Single mutant, His-tagged Fab
With B2, the “EC50 (read off the curve)” value in assay [1] was roughly 1000 nM.

B3: 26D3 (mouse monoclonal antibody) (antibody, V domains shown)
VH: EVQLQQFGVELVKPGASVKISCKASGYIFTDYNMDWVKQSHGKSLEWIGDINPDYDTTSYNEKFKGKATLTVDKSSSTAYMELRSLTSEDTAVYYCARGGYSGSSYYHPMDYWGQGTSVTVSS
VL: DIVMSQSPSSLAVSVGEKITMSCKSSQSLLYSTNQKNYLAWYQQKPGQSPELLIYWASTRESGVPDRFTGSGSGTDFTLTISNVRAEDLAVYYCQQYFIYPRTFGGGTKLEIK
In the case of B3, the binding result in assay [2] is reported as “binds”.

B4: 24B4 (mouse monoclonal antibody) (antibody, V domains shown)
VH: EVQLQQFGAELVKPGTSVKISCKASGYTFTDYNMDWVKQGHGKGLEWIGDINPNYDTTSYSQKFKGKATLTVDKSSSTAYMELRSLTSEDTAVYYCARSEAGNYYWYFDVWGAGTTVTVSS
VL: DIVMSQSPSSLAVSVGEKVTMSCKSSQSLLYSSNRKNYLAWYRQKPGQSPKLLIYWASTRESGVPDRFTGSGSGTDFTLTISSVKAEDLAVYSCQQYYNYPYTFGGGTKLEIK
Regarding B4, the binding result in assay [2] is “binds”.

(Values after patent US20260035475A1 (BIOARCTIC, published 2026).)
